Assays:
[1] = target: T1, parathyroid hormone receptor 1 (PTHR1) in human osteoblast-derived SaOS-2 cells (human, UniProt Q03431 27-593); experiment: cell-based or functional assay
T1 sequence (looked up): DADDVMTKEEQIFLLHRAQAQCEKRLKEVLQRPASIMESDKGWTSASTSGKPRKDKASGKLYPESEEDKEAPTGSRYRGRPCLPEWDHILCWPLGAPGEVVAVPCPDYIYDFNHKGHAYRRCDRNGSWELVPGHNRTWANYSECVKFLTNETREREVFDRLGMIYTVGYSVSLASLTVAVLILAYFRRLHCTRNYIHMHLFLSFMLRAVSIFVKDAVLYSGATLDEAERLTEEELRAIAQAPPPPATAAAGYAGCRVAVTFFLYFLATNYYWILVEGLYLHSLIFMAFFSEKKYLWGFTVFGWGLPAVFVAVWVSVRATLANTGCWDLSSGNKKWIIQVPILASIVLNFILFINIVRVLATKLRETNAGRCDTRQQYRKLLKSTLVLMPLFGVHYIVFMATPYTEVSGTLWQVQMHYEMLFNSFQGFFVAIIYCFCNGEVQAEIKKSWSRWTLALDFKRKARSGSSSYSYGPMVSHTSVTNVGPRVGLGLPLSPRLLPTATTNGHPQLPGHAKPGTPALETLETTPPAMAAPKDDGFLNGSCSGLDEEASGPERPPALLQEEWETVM

[2] = target: T1, parathyroid hormone receptor 1 (PTHR1) …; experiment: cell-based or functional assay; remark: listed apart in the source

B1: Palm-PTH(1-34) (Ref. No. 2027) (peptide)
peptide: SVSEIQLMHNLGKHLNSMERVEWLRKKLQDVHNFEYEXEYE
modifications: (PEG)2 linker (-C(O)-CH2(OCH2CH2)2CH2CH2-NH-) between the C-terminal Phe of PTH(1-34) and the N-terminal Glu of the tag; palmitoyl on the side-chain nitrogen of the Lys of the tag EYEK(palm)EYE; C-terminal amide (-NH2)
- EC50, stimulation of cAMP formation in SaOS-2 cells [1]: ~0.6 nM
- Max %, cAMP signaling in SaOS2/glosensor (SGS-72) cells [2]: 85%
- pEC50, cAMP signaling potency in SaOS2/glosensor (SGS-72) cells [2]: 9.81 log molar concentration (pEC50)

— patent publication US20200405820A1 (GENERAL HOSPITAL, published 2020)
